From patent publication US8247376B2, “NGAL for reduction and amelioration of ischemic and nephrotoxic injuries” (The Trustees of Columbia University, priority 2004, dated 2012)

Tested on: cortical tubules
Test: BrdU uptake: percent of cortical tubules with BrdU-positive cell
Type: in vivo, mice
Settings: NGAL pretreated, 24 hours after insult; ischemic 1.9%, sham 3.7%
Excerpt: After 6 or 24 hr of reperfusion, heparinized plasma, urine and kidney samples were obtained to measure NGAL (polyclonal 1:500), Heme oxygenase-1 (Stressgen, 1:2000), E-cadherin (BD Transduction Labs, 1:2000), N-cadherin (BD Transduction Labs, 1:3000) and GAPDH (Chemicon International, 1:3000) using immunoblots. Plasma was also used for creatinine and blood urea nitrogen colorimetric assays. Sagittal sections of the kidney were fixed in 4% formalin, or were snap frozen for mRNA and protein analysis. Paraffin-embedded sections (5 μm) were stained with hematoxylin-eosin or by an in situ kit (Fluorescein-TUNEL, Roche) for apoptotic nuclei or for total nuclei (Toprol, Molecular Probes). For cell proliferation analysis, BrdU was injected into the peritoneum 1 hour before sacrifice, and cryostat sections were stained with anti-BrdU (Roche) according to the manufacturer.

B1: NGAL: Purified endotoxin-free recombinant NGAL expressed as GST fusion protein in bacteria, thrombin cleaved (protein, UniProt P80188 21-198, looked up)
Neutrophil …: QDSTSDLIPAPPLSKVPLQQNFQDNQFQGKWYVVGLAGNAILREDKDPQKMYATIYELKEDKSYNVTSVLFRKKKCDYWIRTFVPGCQPGEFTLGNIKSYPGLTSYLVRVVSTNYNQHAMVFFKKVSQNREYFKITLYGRTKELTSELKENFIRFSKSLGLPENHIVFPVPIDQCIDG
- percent of cortical tubules with at least one BrDU-positive tubular cell: 3.9%±0.5
